The Immune Epitope Database (IEDB)

What was measured:
Assay in all cases: IEDB peptide-MHC binding, purified MHC/competitive/radioactivity; filed as Kd, often an IC50 or EC50 that approximates it; ≥ and ≤ were set here for values at or beyond the usual limits of such assays
HLA-A*31:01 = target: HLA-A*31:01
HLA-A*33:01 = target: HLA-A*33:01
HLA-A*11:01 = target: HLA-A*11:01
HLA-A*68:01 = target: HLA-A*68:01
HLA-A*03:01 = target: HLA-A*03:01
[1] = source organism: Vaccinia virus WR
[2] = source organism: Dengue virus 4 Philippines/H241/1956
[3] = source organism: Dengue virus 2 Jamaica/1409/1983
[4] = source organism: Dengue virus 3 Martinique/1243/1999
[5] = source organism: SARS coronavirus ZJ0301
[6] = source organism: Dengue virus 1 Brazil/97-11/1997
[7] = source organism: SARS coronavirus Tor2
[8] = source organism: Vaccinia virus Copenhagen
[9] = source organism: Mammarenavirus brazilense
[10] = source organism: Mammarenavirus whitewaterense
[11] = source organism: Lymphocytic choriomeningitis virus (strain Armstrong)
[12] = source organism: Dengue virus 3 Sri Lanka/1266/2000
[13] = source organism: Dengue virus 2 Peru/IQT2913/1996

Sequence	Kd (HLA-A*31:01; [1])	Kd (HLA-A*33:01; [1])	Kd (HLA-A*11:01; [1])	Kd (HLA-A*68:01; [1])	Kd (HLA-A*03:01; [1])	further results
KIAPGIADIR	355 nM	≥ 53900 nM	4510 nM	5400 nM	1660 nM	–
KIEEIEKVEK	9010 nM	≥ 47000 nM	709 nM	417 nM	1520 nM	–
KLGEFGRAK	–	–	–	–	–	Kd (HLA-A*03:01; [2]): 1.75 nM
KSSSIDVDK	17700 nM	≥ 77700 nM	161 nM	8590 nM	14200 nM	–
LFLEEMLRTR	–	–	–	–	–	Kd (HLA-A*31:01; [3]): 732 nM; Kd (HLA-A*33:01; [3]): 685 nM
LFMALVAFLR	–	–	–	–	–	Kd (HLA-A*31:01; [3]): 95.5 nM; Kd (HLA-A*33:01; [3]): 93.2 nM; Kd (HLA-A*68:01; [3]): 192 nM
LFMEMFFDY	13000 nM	≥ 56100 nM	≥ 59500 nM	≥ 70200 nM	≥ 37600 nM	–
LFTSTNDKIK	≥ 65600 nM	≥ 55200 nM	915 nM	531 nM	≥ 24900 nM	–
LFYPSMFTLR	1.33 nM	28.9 nM	7330 nM	2.66 nM	1590 nM	–
LISYGGGWK	–	–	–	–	–	Kd (HLA-A*03:01; [3]): 338 nM
LLACTDPSER	1260 nM	2420 nM	≥ 37000 nM	856 nM	≥ 70100 nM	–
LLALNDMGK	–	–	–	–	–	Kd (HLA-A*03:01; [4]): 294 nM
LLMHLVSLYK	85.1 nM	15800 nM	0.379 nM	17.5 nM	1.22 nM	–
LLNSNALLR	–	–	–	–	–	Kd (HLA-A*31:01; [5]): 148 nM; Kd (HLA-A*33:01; [5]): 6980 nM; Kd (HLA-A*11:01; [5]): 222 nM; Kd (HLA-A*68:01; [5]): 687 nM; Kd (HLA-A*03:01; [5]): 14.7 nM
LLPSTDVNK	17300 nM	≥ 77700 nM	5540 nM	6950 nM	5010 nM	–
LLSCIRNASK	822 nM	16700 nM	29.3 nM	195 nM	66.2 nM	–
LMKSLGGGR	–	–	–	–	–	Kd (HLA-A*31:01; [6]): ≥ 57600 nM
LTPIFSDLLK	4120 nM	3900 nM	2.37 nM	17.2 nM	24.1 nM	–
MAVEVGSIR	279 nM	245 nM	39.5 nM	1.36 nM	≥ 78000 nM	–
MIEEVMRSR	–	–	–	–	–	Kd (HLA-A*33:01; [6]): 90.8 nM
MLVTPSMAMR	–	–	–	–	–	Kd (HLA-A*31:01; [6]): ≥ 51700 nM; Kd (HLA-A*33:01; [6]): 34.6 nM; Kd (HLA-A*68:01; [6]): 32 nM
MVSRLLLNR	–	–	–	–	–	Kd (HLA-A*31:01; [4]): 4.81 nM; Kd (HLA-A*33:01; [4]): 8.31 nM; Kd (HLA-A*11:01; [4]): 49.9 nM; Kd (HLA-A*68:01; [4]): 13 nM
NATFFIFNK	–	–	–	–	–	Kd (HLA-A*31:01; [7]): 1710 nM; Kd (HLA-A*33:01; [7]): 87.3 nM; Kd (HLA-A*11:01; [7]): 87.3 nM; Kd (HLA-A*68:01; [7]): 19.5 nM; Kd (HLA-A*03:01; [7]): 386 nM

Sequence	Kd (HLA-A*31:01; [1])	Kd (HLA-A*33:01; [1])	Kd (HLA-A*11:01; [1])	Kd (HLA-A*68:01; [1])	Kd (HLA-A*03:01; [1])	further results
NFITKEIKNR	1070 nM	168 nM	≥ 69800 nM	526 nM	≥ 70100 nM	–
NFLRSIAMLK	9.91 nM	70 nM	316 nM	272 nM	74.6 nM	–
NISFKSINK	9770 nM	3180 nM	41.3 nM	119 nM	14.9 nM	–
NLCTHSFRK	–	–	–	–	–	Kd (HLA-A*31:01; [7]): 13600 nM; Kd (HLA-A*33:01; [7]): 9700 nM; Kd (HLA-A*11:01; [7]): 7900 nM; Kd (HLA-A*68:01; [7]): ≥ 24400 nM; Kd (HLA-A*03:01; [7]): 2430 nM
NLLVQYGAK	≥ 20800 nM	≥ 22300 nM	12600 nM	2490 nM	274 nM	–
NSVANRSKQK	17000 nM	≥ 70000 nM	525 nM	568 nM	322 nM	–
NTFVNFNSVK	–	–	–	–	–	Kd (HLA-A*31:01; [8]): 1670 nM; Kd (HLA-A*33:01; [8]): 856 nM; Kd (HLA-A*11:01; [8]): 65.9 nM; Kd (HLA-A*68:01; [8]): 39.8 nM; Kd (HLA-A*03:01; [8]): 74.6 nM
NYILCYRKPH	–	–	–	–	–	Kd (HLA-A*31:01; [9]): 11600 nM; Kd (HLA-A*33:01; [9]): 2200 nM; Kd (HLA-A*11:01; [9]): ≥ 69700 nM; Kd (HLA-A*68:01; [9]): ≥ 24500 nM; Kd (HLA-A*03:01; [9]): 5310 nM
NYLDYMTSMK	–	–	–	–	–	Kd (HLA-A*33:01; [6]): 173 nM
PMPCMINDTH	–	–	–	–	–	Kd (HLA-A*31:01; [10]): ≥ 70000 nM; Kd (HLA-A*33:01; [10]): ≥ 70000 nM; Kd (HLA-A*11:01; [10]): ≥ 69700 nM; Kd (HLA-A*68:01; [10]): ≥ 70100 nM; Kd (HLA-A*03:01; [10]): ≥ 70000 nM
QAEPSLYGRH	–	–	–	–	–	Kd (HLA-A*31:01; [9]): ≥ 20000 nM; Kd (HLA-A*33:01; [9]): ≥ 70000 nM; Kd (HLA-A*11:01; [9]): ≥ 69700 nM; Kd (HLA-A*68:01; [9]): ≥ 70100 nM; Kd (HLA-A*03:01; [9]): ≥ 70000 nM
QFKQDSKYSH	–	–	–	–	–	Kd (HLA-A*31:01; [11]): 13000 nM; Kd (HLA-A*33:01; [11]): 2910 nM; Kd (HLA-A*11:01; [11]): ≥ 69700 nM; Kd (HLA-A*68:01; [11]): ≥ 70100 nM; Kd (HLA-A*03:01; [11]): ≥ 70000 nM
RMLNILNGR	–	–	–	–	–	Kd (HLA-A*31:01; [2]): 1.16 nM
RVSTPQGLVK	–	–	–	–	–	Kd (HLA-A*11:01; [2]): 54.2 nM; Kd (HLA-A*03:01; [2]): 5.93 nM
SIFAGHLKCR	–	–	–	–	–	Kd (HLA-A*33:01; [4]): 116 nM
TAMAFHLSTR	–	–	–	–	–	Kd (HLA-A*31:01; [2]): 34.3 nM; Kd (HLA-A*33:01; [2]): 16.7 nM; Kd (HLA-A*68:01; [2]): 8.51 nM
TIFTLTVAWR	–	–	–	–	–	Kd (HLA-A*31:01; [12]): 395 nM; Kd (HLA-A*33:01; [12]): 391 nM; Kd (HLA-A*68:01; [12]): 87.3 nM
TSEVHWNYK	–	–	–	–	–	Kd (HLA-A*11:01; [2]): 84.9 nM
VIDPRRCLK	–	–	–	–	–	Kd (HLA-A*11:01; [6]): 1500 nM; Kd (HLA-A*03:01; [6]): 49.3 nM
VMAFHLTTR	–	–	–	–	–	Kd (HLA-A*31:01; [13]): 7.39 nM; Kd (HLA-A*03:01; [13]): 51.7 nM
VTNHMEGEHK	–	–	–	–	–	Kd (HLA-A*11:01; [3]): 508 nM
YLALIATFK	–	–	–	–	–	Kd (HLA-A*68:01; [4]): 31.8 nM; Kd (HLA-A*03:01; [4]): 4.7 nM
